Results taken from patent publication US20240043534A1.

Tests used:
[1] = target: FabHS (human 4D5 scaffold with residues PEELRTNK replacing amino acids corresponding to 15-22 of SEQ ID NO:1); assay: protein ELISA
[2] = target: yeast histone chaperone protein Asf1 (Anti-silencing factor 1) (yeast) (UniProt P32447); assay: cell-based or functional assay
[3] = target: N-terminal methyltransferase domain of the Zika virus bifunctional NS5 enzyme (MT ZIKV) (Zika virus); assay: SPR, Fab as analyte on His-tag-immobilized antigen
[4] = target: N-terminal methyltransferase domain of the Zika virus bifunctional NS5 enzyme (MT ZIKV) (Zika virus); assay: cell-based or functional assay
[5] = target: “Λ” Fab scaffold (4D5 scaffold with SEELQANK in the Lc region); assay: SPR (preliminary results), Protein G variant against Fab scaffold
[6] = target: Fab^H (Herceptin Fab scaffold with wt human kappa Lc; Lc aa 123-127 EQLKS); assay: as above
[7] = target: Fab with CK (kappa) light chain constant domain; assay: ELISA
[8] = target: Fab^H(Her2)-linker-GA1 fusion (13 residue linker); assay: cell-based or functional assay

Sequence of FabHS (human 4D5 scaffold with residues PEELRTNK replacing amino acids corresponding to 15-22 of SEQ ID NO:1) (light, as listed by the source): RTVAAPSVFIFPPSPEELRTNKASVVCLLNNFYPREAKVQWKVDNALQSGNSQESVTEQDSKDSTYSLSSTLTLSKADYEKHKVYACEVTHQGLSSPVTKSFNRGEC
Sequence of “Λ” Fab scaffold (4D5 scaffold with SEELQANK in the Lc region) (light, as listed by the source): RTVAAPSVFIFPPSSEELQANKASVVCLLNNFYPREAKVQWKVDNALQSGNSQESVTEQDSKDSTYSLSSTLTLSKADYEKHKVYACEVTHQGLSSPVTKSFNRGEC
Sequence of yeast histone chaperone protein Asf1 (Anti-silencing factor 1) (yeast) (P32447 1-158 limits assumed): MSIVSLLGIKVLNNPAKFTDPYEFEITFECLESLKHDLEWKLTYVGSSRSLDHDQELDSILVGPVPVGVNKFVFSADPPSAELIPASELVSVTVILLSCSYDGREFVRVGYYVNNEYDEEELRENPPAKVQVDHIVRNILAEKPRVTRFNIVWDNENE

B1: Protein-G-HS C6 (designed binder)
chain: MKGETTTEAVDAATAEKVFKQYANDNGVDGEWTYDDATKTFTVTEKPEVIDASELTPAVTTYKLVINGKTLKGETTTEAVDAATAEKVFKQYANDNGVDGEWTYDDATKTFTVTEKPEVIDASELTPAVTTYKLVINGRTLSGETTTKAVDAETAEKAFKQYSRPHVVDGVWTYDDATKTFTVTE
IC50 [1]: 0.008 µM

B2: Protein-G-HS C7 (designed binder)
chain: MKGETTTEAVDAATAEKVFKQYANDNGVDGEWTYDDATKTFTVTEKPEVIDASELTPAVTTYKLVINGKTLKGETTTEAVDAATAEKVFKQYANDNGVDGEWTYDDATKTFTVTEKPEVIDASELTPAVTTYKLVINGRTLSGETTTKAVDAETAEKAFKQYAYGAVVDGVWTYDDATKTFTVTE
IC50 [1]: 0.1 µM

B3: E11 Asf1 LRT-Fab (Fab, V domains shown)
VH: EVQLVESGGGLVQPGGSLRLSCAASGFNISYSSIHWVRQAPGKGLEWVASISSYYGSTYYADSVKGRFTISADTSKNTAYLQMNSLRAEDTAVYYCARSRGQASWDYWGQGTLVTVSS
VL: DIQMTQSPSSLSASVGDRVTITCRASQSVSSAVAWYQQKPGKAPKLLIYSASSLYSGVPSRFSGSRSGTDFTLTISSLQPEDFATYYCQQSSDDPITFGQGTKVEIKR
β-lactamase (BL) split-enzyme complementation, fluorescent signal [2]: < 10 fold

B4: Z2C4 ZIKV LRT-Fab (Fab, V domains shown)
VH: EVQLVESGGGLVQPGGSLRLSCAASGFNVYYSSIHWVRQAPGKGLEWVAYIYPSSGSTYYADSVKGRFTISADTSKNTAYLQMNSLRAEDTAVYYCARSWSPYGMDYWGQGTLVTVSS
VL: DIQMTQSPSSLSASVGDRVTITCRASQSVSSAVAWYQQKPGKAPKLLIYSASSLYSGVPSRFSGSRSGTDFTLTISSLQPEDFATYYCQQWYDSLITFGQGTKVEIKR
Kd [3]: 0.0007 µM | β-lactamase (BL) split-enzyme complementation, limit of antigen detection [4]: 30 nM

B5: Z2G6 ZIKV LRT-Fab (Fab, V domains shown)
VH: EVQLVESGGGLVQPGGSLRLSCAASGFNVYYYYIHWVRQAPGKGLEWVASIYSYSGYTYYADSVKGRFTISADTSKNTAYLQMNSLRAEDTAVYYCAREGVWWEDEFYPGLDYWGQGTLVTVSS
VL: DIQMTQSPSSLSASVGDRVTITCRASQSVSSAVAWYQQKPGKAPKLLIYSASSLYSGVPSRFSGSRSGTDFTLTISSLQPEDFATYYCQQSWSSLFTFGQGTKVEIKR
Kd [3]: 0.0017 µM | koff [3]: 9.2e-05 s⁻¹ | β-lactamase (BL) split-enzyme complementation, limit of antigen detection [4]: 30 nM

B6: Protein G D (designed binder)
chain: TPAVTTYKLVINGRTLSGYTTTTAVDAATAEKVFKQIDMVSSVDGEWTYDDATKTFTVTEKPEKL
Kd [5]: 0.05 µM | Kd [6]: 0.015 µM

B7: Protein-G-A1 (SEQ ID NO:27) (designed binder)
chain: MKGETTTEAVDAATAEKVFKQYANDNGVDGEWTYDDATKTFTVTEKPEVIDASELTPAVTTYKLVINGRTLSGYTTTTAVDAATAEKVFKQYAYVHEVDGEWTYDDATKTFTVTEKPEVIDASELTPAVTTYKLVINGRTLSGETTTKAVDAETAEKAFKQYANDNGVDGVWTYDDATKTFTVTE
EC50 ratio (preference for CK over Cλ) [7]: > 5000

B8: hOKT3(S)_LRT (Fab, V domains shown)
VH: EVQLVESGGGLVQPGGSLRLSCAASGYTFTRYTMHWVRQAPGKGLEWIGYINPSRGYTNYNQKFKDKATISTDKSKNTAYLQMNSLRAEDTAVYYCARYYDDHYSLDYWGQGTLVTVSS
VL: DIQMTQSPSSLSASVGDRVTITCSASSSVSYMNWYQQKPGKAPKRWIYDTSKLASGVPSRFSGSGSGTDYTLTISSLQPEDFATYYCQQWSSNPFTFGQGTKVEIKR
redirected tumor-cell killing (LDH release), PBMC-SKBR3 co-cultures, bi-Fab at 50 nM [8]: < 70%
